{"source": "paper PMC4714923", "binders": {"B1": {"name": "Human FKBP51 (51-kDa FK506-binding protein), Q13451 1-457 (natural protein)", "chain": "MTTDEGAKNNEESPTATVAEQGEDITSKKDRGVLKIVKRVGNGEETPMIGDKVYVHYKGKLSNGKKFDSSHDRNEPFVFSLGKGQVIKAWDIGVATMKKGEICHLLCKPEYAYGSAGSLPKIPSNATLFFEIELLDFKGEDLFEDGGIIRRTKRKGEGYSNPNEGATVEIHLEGRCGGRMFDCRDVAFTVGEGEDHDIPIGIDKALEKMQREEQCILYLGPRYGFGEAGKPKFGIEPNAELIYEVTLKSFEKAKESWEMDTKEKLEQAAIVKEKGTVYFKGGKYMQAVIQYGKIVSWLEMEYGLSEKESKASESFLLAAFLNLAMCYLKLREYTKAVECCDKALGLDSANEKGLYRRGEAQLLMNEFESAKGDFEKVLEVNPQNKAARLQISMCQKKAKEHNERDRRIYANMFKKFAEQDAKEEANKAMGKKTSEGVTNEKGTDSQAMEEEKPEGHV", "modifications": "here or on the partner: 5-carboxyfluorescein (5-Fam) on the N-terminus via a 6-carbon spacer (aminohexanoic acid)"}}, "biological_target": "T1, Hsp72 C-terminal tracer (Fam-…) (human)", "T1 chain": "GSGPTIEEVD", "test": "fluorescence polarisation", "conditions": "remark: other sources report otherwise", "data": [{"binder": "B1", "values": [{"measurement": "Kd", "result": "> 75", "unit": "µM"}]}]}
